Substitutions are numbered along the chain they refer to.
T1: Mouse MSLN (Mus musculus, UniProt Q61468)
T1 construct: also called murine mesothelin
T1 sequence (target, looked up): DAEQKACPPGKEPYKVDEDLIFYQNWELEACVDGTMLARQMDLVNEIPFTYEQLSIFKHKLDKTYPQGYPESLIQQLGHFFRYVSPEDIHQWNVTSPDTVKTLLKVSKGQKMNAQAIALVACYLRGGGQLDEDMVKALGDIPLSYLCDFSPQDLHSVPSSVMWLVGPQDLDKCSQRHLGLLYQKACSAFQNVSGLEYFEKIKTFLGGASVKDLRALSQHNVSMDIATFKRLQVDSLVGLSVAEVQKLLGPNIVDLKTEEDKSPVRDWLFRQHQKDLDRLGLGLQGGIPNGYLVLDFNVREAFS

T2: Rat MSLN (Rattus norvegicus, UniProt Q9ERA7)
T2 construct: also called rat mesothelin
T2 sequence (target, looked up): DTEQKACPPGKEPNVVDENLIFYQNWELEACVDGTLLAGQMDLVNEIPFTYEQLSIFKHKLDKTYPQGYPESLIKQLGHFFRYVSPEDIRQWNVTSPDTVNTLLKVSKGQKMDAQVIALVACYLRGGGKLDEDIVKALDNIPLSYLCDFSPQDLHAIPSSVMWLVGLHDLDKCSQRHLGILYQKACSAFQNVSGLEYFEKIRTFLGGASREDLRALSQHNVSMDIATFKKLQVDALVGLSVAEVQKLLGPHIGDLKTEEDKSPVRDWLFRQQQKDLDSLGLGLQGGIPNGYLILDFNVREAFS

B1: Ab237 (Hu-anti-huMesothelin-2.37-IgG1) (antibody, V domains shown)
VH: QVQLQESGPGLVKPSQTLSLTCTVSGGSINNNNYYWTWIRQHPGKGLEWIGYIYYSGSTFYNPSLKSRVTISVDTSKTQFSLKLSSVTAADTAVYYCAREDTMTGLDVWGQGTTVTVSS
VL: DIQMTQSPSSLSASVGDRVTITCRASQSINNYLNWYQQKPGKAPTLLIYAASSLQSGVPSRFSGSRSGTDFTLTISSLQPEDFAAYFCQQTYSNPTFGQGTKVEVK
notes: Fully human antibody from XenoMouse; Only the variable domains are tied to Ab237
B2: 158.3 (antibody, V domains shown)
VH: QVQLQESGPGLVKPSETLSLTCTVSGGSIISHYWSWIRQPPGKGLEWIGYIYYSGSTNYNPSLKSRVTISVDTSKNQFSLKLTSVTAADTAVYYCARDGWSAFDYWGQGTLVTVSS
VL: DIQMTQSPSSLSASVGDRVTITCRASQGIRNALGWYQQKPGKAPKRLIYAASSLQSGVPSRFSGSGSGTEFTLTISSLQPEDFATYYCLQHNSYPRTFGQGTKVEIRR
notes: also called 1.58.3 g1; 1.58.3 g2
B3: 151 (antibody, V domains shown)
VH: B2 VH with I30S, H32Y, T83S, D98V, G99D, W100Y, S101K, Y105I, L111M
VL: DIQMTQSPSSLSASVGDRVTITCRASQGIRNDLHWYQQKPGKAPKRLIYAASSLQSGVPSRFSGSGSGTEFTLTISSLQPEDFATYYCLQHYSYPWTFGQGTKVEIK
notes: also called Ab1.51

What was measured:
[1] = target: T1, Mouse MSLN; experiment: FACS on 293T cells transiently expressing the orthologue
Description: (§1) FACs assays were performed by incubating hybridoma supernatants with 10,000 to 25,000 cells in PBS/2% Fetal bovine serum/2 mM Calcium Chloride at 4° C. for one hour followed by two washes with PBS/2% Fetal bovine serum/2 mM Calcium Chloride. Cells were then treated with florochrome-labeled secondary antibodies at 4° C. followed by one wash. The cells were resuspended in 50 μl of PBS/2% FBS and antibody binding was analyzed using a FACSCalibur™ instrument.

[2] = target: T2, Rat MSLN; experiment: as above
Description: as §1

Binder | binding result [1] | binding result [2]
B1 | binds | binds
B2 | no binding | –
B3 | no binding | –

Source: patent US20210380714A1 (Amgen, published 2021)
